Tested on: Escherichia coli TOP10
Assay: shrunken log2 fold change of peptide-encoding DNA abundance (4.5 h post-induction vs induction); higher = less antimicrobial activity (less host growth inhibition)
Conditions: time post-induction: 4.5 h; library: site-saturation at positions 5, 18, 19, 20
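Further: peptides expressed intracellularly from a pBAD plasmid library in pooled LB shake-flask culture, induced with 0.3% L-arabinose, DNA abundance read by NGS, three biological replicates, DESeq2 with apeglm shrinkage.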

Sequence | shrunken log2 fold change
RRIRHRPPRLPRPRPRPRDGPRP | 0.84
RRIRHRPPRLPRPRPRPREQPRP | 0.628
RRIRHRPPRLPRPRPRPRFCPRP | 0.0432
RRIRHRPPRLPRPRPRPRGPPRP | 0.171
RRIRHRPPRLPRPRPRPRHRPRP | -0.029
RRIRHRPPRLPRPRPRPRIHPRP | -0.473
RRIRHRPPRLPRPRPRPRKTPRP | 0.00946
RRIRHRPPRLPRPRPRPRKWPRP | -0.0137
RRIRHRPPRLPRPRPRPRLKPRP | -0.0285
RRIRHRPPRLPRPRPRPRMQPRP | 0.183
RRIRHRPPRLPRPRPRPRPSPRP | 0.466
RRIRHRPPRLPRPRPRPRTEPRP | 0.218
RRIRHRPPRLPRPRPRPRVDPRP | 0.0681
RRIRHRPPRLPRPRPRPSALPRP | -0.243
RRIRHRPPRLPRPRPRPSARPRP | -0.223
RRIRHRPPRLPRPRPRPSDLPRP | -0.441
RRIRHRPPRLPRPRPRPSENPRP | -0.096
RRIRHRPPRLPRPRPRPSFAPRP | 0.0263
RRIRHRPPRLPRPRPRPSGWPRP | -0.291
RRIRHRPPRLPRPRPRPSKRPRP | 0.0594
RRIRHRPPRLPRPRPRPSKSPRP | -0.143
RRIRHRPPRLPRPRPRPSLAPRP | -0.219

Sequence | shrunken log2 fold change
RRIRHRPPRLPRPRPRPSLCPRP | -0.0468
RRIRHRPPRLPRPRPRPSMIPRP | -0.23
RRIRHRPPRLPRPRPRPSMNPRP | -0.253
RRIRHRPPRLPRPRPRPSMQPRP | -0.124
RRIRHRPPRLPRPRPRPSNPPRP | -0.219
RRIRHRPPRLPRPRPRPSPEPRP | -0.0554
RRIRHRPPRLPRPRPRPSPKPRP | -0.0976
RRIRHRPPRLPRPRPRPSRVPRP | -0.0634
RRIRHRPPRLPRPRPRPSSDPRP | -0.529
RRIRHRPPRLPRPRPRPSSKPRP | -0.0453
RRIRHRPPRLPRPRPRPSTSPRP | -0.478
RRIRHRPPRLPRPRPRPSVYPRP | -0.47
RRIRHRPPRLPRPRPRPSWKPRP | -0.0518
RRIRHRPPRLPRPRPRPSYIPRP | -1.77
RRIRHRPPRLPRPRPRPSYQPRP | -1.14
RRIRHRPPRLPRPRPRPTAWPRP | 0.0946
RRIRHRPPRLPRPRPRPTDGPRP | -0.0791
RRIRHRPPRLPRPRPRPTDIPRP | -0.668
RRIRHRPPRLPRPRPRPTEPPRP | 0.0484
RRIRHRPPRLPRPRPRPTFQPRP | -0.067
RRIRHRPPRLPRPRPRPTGGPRP | 0.0928
RRIRHRPPRLPRPRPRPTHQPRP | 0.243

Sequence | shrunken log2 fold change
RRIRHRPPRLPRPRPRPTIHPRP | -0.552
RRIRHRPPRLPRPRPRPTIIPRP | -0.494
RRIRHRPPRLPRPRPRPTIRPRP | -0.689
RRIRHRPPRLPRPRPRPTIVPRP | -0.292
RRIRHRPPRLPRPRPRPTIYPRP | -0.254
RRIRHRPPRLPRPRPRPTKYPRP | -0.345
RRIRHRPPRLPRPRPRPTLMPRP | -0.0715
RRIRHRPPRLPRPRPRPTLYPRP | -0.362
RRIRHRPPRLPRPRPRPTMAPRP | -0.0607
RRIRHRPPRLPRPRPRPTMNPRP | -0.173
RRIRHRPPRLPRPRPRPTNCPRP | -0.197
RRIRHRPPRLPRPRPRPTQCPRP | -0.0253
RRIRHRPPRLPRPRPRPTQEPRP | -0.0394
RRIRHRPPRLPRPRPRPTQSPRP | 0.113
RRIRHRPPRLPRPRPRPTRCPRP | -0.00896
RRIRHRPPRLPRPRPRPTRKPRP | 0.00421
RRIRHRPPRLPRPRPRPTVAPRP | 0.325
RRIRHRPPRLPRPRPRPTVPPRP | -0.0133
RRIRHRPPRLPRPRPRPTWAPRP | 0.303
RRIRHRPPRLPRPRPRPTWTPRP | 2.15e-05
RRIRHRPPRLPRPRPRPTWVPRP | 0.078
RRIRHRPPRLPRPRPRPTYGPRP | -0.106

Sequence | shrunken log2 fold change
RRIRHRPPRLPRPRPRPVCYPRP | -0.663
RRIRHRPPRLPRPRPRPVDFPRP | 0.0522
RRIRHRPPRLPRPRPRPVDLPRP | -0.314
RRIRHRPPRLPRPRPRPVDVPRP | -0.119
RRIRHRPPRLPRPRPRPVEGPRP | 0.105
RRIRHRPPRLPRPRPRPVFAPRP | 0.12
RRIRHRPPRLPRPRPRPVFEPRP | -0.153
RRIRHRPPRLPRPRPRPVFPPRP | 0.171
RRIRHRPPRLPRPRPRPVGNPRP | 0.0182
RRIRHRPPRLPRPRPRPVHCPRP | -0.159
RRIRHRPPRLPRPRPRPVKSPRP | -0.0219
RRIRHRPPRLPRPRPRPVMGPRP | 0.0268
RRIRHRPPRLPRPRPRPVPMPRP | 0.0504
RRIRHRPPRLPRPRPRPVQPPRP | -0.0332
RRIRHRPPRLPRPRPRPVRCPRP | 0.592
RRIRHRPPRLPRPRPRPVSSPRP | -0.0295
RRIRHRPPRLPRPRPRPVTQPRP | -0.296
RRIRHRPPRLPRPRPRPVTWPRP | -0.268
RRIRHRPPRLPRPRPRPVVHPRP | -0.115
RRIRHRPPRLPRPRPRPVWHPRP | 0.0453
RRIRHRPPRLPRPRPRPVYFPRP | -0.508
RRIRHRPPRLPRPRPRPVYQPRP | -0.359

Sequence | shrunken log2 fold change
RRIRHRPPRLPRPRPRPVYSPRP | -0.0167
RRIRHRPPRLPRPRPRPVYTPRP | -0.206
RRIRHRPPRLPRPRPRPWAEPRP | -0.119
RRIRHRPPRLPRPRPRPWCWPRP | 0.0593
RRIRHRPPRLPRPRPRPWFEPRP | -0.366
RRIRHRPPRLPRPRPRPWFFPRP | -0.379
RRIRHRPPRLPRPRPRPWGNPRP | -0.0654
RRIRHRPPRLPRPRPRPWHCPRP | 0.162
RRIRHRPPRLPRPRPRPWHLPRP | -1.9
RRIRHRPPRLPRPRPRPWHSPRP | -0.22
RRIRHRPPRLPRPRPRPWIFPRP | -0.332
RRIRHRPPRLPRPRPRPWKWPRP | -0.00968
RRIRHRPPRLPRPRPRPWMDPRP | 0.113
RRIRHRPPRLPRPRPRPWNHPRP | -0.0561
RRIRHRPPRLPRPRPRPWPCPRP | -0.027
RRIRHRPPRLPRPRPRPWPHPRP | -0.0305
RRIRHRPPRLPRPRPRPWPYPRP | -0.01
RRIRHRPPRLPRPRPRPWQYPRP | -0.17
RRIRHRPPRLPRPRPRPWRCPRP | -0.221
RRIRHRPPRLPRPRPRPWSEPRP | 0.00408
RRIRHRPPRLPRPRPRPWSMPRP | -0.293

From the supplement of paper PMC9112550, “Optimization of the antimicrobial peptide Bac7 by deep mutational scanning” (BMC Biology, 2022)
